Tests used:
[1] = target: T1, human VEGF-A residues 27-191 of Accession #AAV38412 (human, UniProt P15692 27-191); assay: BIAcore SPR, KD WT/KD mutant [continued]
T1 construct: range 27-191
Description: (§1) The binding kinetics and affinity of the antibodies for VEGF (human VEGF-A residues 27-191 of Accession #AAV38412) was determined by using a BIAcore T200 surface plasmon resonance system (BIAcore, GE Healthcare, Piscataway, N.J.). Coupling running buffer was HBS-EP+ running buffer (10 mM HEPES, 150 mM sodium chloride, 3 mM EDTA 0.05% P-20, pH 7.4); assay running buffer was HBS-EP+ with 300 mM sodium chloride and 0.1 mg/mL BSA (Sigma A7906). Polyclonal goat anti-human Fc (Thermo Scientific prod#31125) was first immobilized to the biosensor surface in 10 mM sodium acetate, pH 4.5 using standard BIAcore amine coupling reagents (N-ethyl-N′-dimethylamino-propylcarbodiimide, EDC; N-hydroxysuccinimide, NHS; and ethanolamine HCl, pH 8.5). For binding kinetics assay a series of cycles were performed, each cycle consisted of 1) mAb capture, 2) Ag or buffer injection, 3) dissociation phase and 4) regeneration. Briefly, anti-VEGF antibodies were captured on parallel surfaces at a low flow rate of 10 μL/min. Capture levels were kept low to minimize avidity due to the dimeric nature of VEGF. No capture of the antibody was made on the reference surface to serve for primary referencing and as a negative control. Subsequently, VEGF or buffer only was injected to all flow cells at a flow rate of 80 μL/min for three minutes to monitor association followed by a 20-minute flow of assay rinning buffer at a flow rate of 80 μL/min to monitor dissociation. […] At the end of each cycle the surface was regenerated with 10 mM glycine, pH 1.5 at a flow rate of 60 μL/min in pulses of 60 and 10 sec. Binding data were fit to the 1:1 Langmuir model with mass transport term included using Biacore T200 Evaluation Software to determine the binding constants.

[2] = target: T1, human VEGF-A residues 27-191 of …; assay: BIAcore SPR [continued]
Description: as §1

[3] = target: Alexa647-conjugated rHuVEGF (Invitrogen Cat #PHG0143) (human, UniProt P15692-4 27-191, limits assumed, Alexa647-conjugated); assay: flow cytometry, surface-bound antibody on 293c18 cells, 3 nM Alexa647-rHuVEGF; parameters: reference not given here
Description: Data were gathered by way of flow cytometry using a DakoCytomation CyAn ADP flow cytometer and was analyzed using Treestar's FloJo analysis program.

[4] = target: T1, human VEGF-A residues 27-191 of …; assay: BIAcore SPR
Description: as §1

[5] = target: T1, human VEGF-A residues 27-191 of …; assay: BIAcore SPR; kd of this row is at the detection limit
Description: (§2) The binding kinetics and affinity of the antibodies for VEGF (human VEGF-A residues 27-191 of Accession #AAV38412) was determined by using a BIAcore T200 surface plasmon resonance system (BIAcore, GE Healthcare, Piscataway, N.J.). Coupling running buffer was HBS-EP+ running buffer (10 mM HEPES, 150 mM sodium chloride, 3 mM EDTA 0.05% P-20, pH 7.4); assay running buffer was HBS-EP+ with 300 mM sodium chloride and 0.1 mg/mL BSA (Sigma A7906). Polyclonal goat anti-human Fc (Thermo Scientific prod#31125) was first immobilized to the biosensor surface in 10 mM sodium acetate, pH 4.5 using standard BIAcore amine coupling reagents (N-ethyl-N′-dimethylamino-propylcarbodiimide, EDC; N-hydroxysuccinimide, NHS; and ethanolamine HCl, pH 8.5). For binding kinetics assay a series of cycles were performed, each cycle consisted of 1) mAb capture, 2) Ag or buffer injection, 3) dissociation phase and 4) regeneration. Briefly, anti-VEGF antibodies were captured on parallel surfaces at a low flow rate of 10 μL/min. Capture levels were kept low to minimize avidity due to the dimeric nature of VEGF. No capture of the antibody was made on the reference surface to serve for primary referencing and as a negative control. […]

[6] = target: T2, unlabeled human VEGF (ELISA coat) (human, UniProt P15692-4 27-191, limits assumed); assay: ELISA overnight, EC50 WT/EC50 mutant
Description: (§3) To detect identified variants binding to antigen, ELISA plates (Nunc-Immuno MaxiSorp plates, Nalge Nunc, Rochester, N.Y.) were coated overnight at 4° C. with unlabeled human VEGF at 1 μg/mL in 0.2 M sodium carbonate-bicarbonate buffer (pH 9.4, Pierce, Rockford, Ill.). The plates were then blocked with SuperBlock Blocking Buffer (Pierce, Rockford, Ill.) for 30 min and washed with Washing Buffer (PBS containing 0.1% Tween 20). All the washing steps were performed for three times. […] The plates were washed and 100 μL of goat anti-human kappa HRP-conjugated antibody (Southern Biotech, Birmingham, Ala.) diluted at 1:1000 in ELISA buffer was added to each well. After 30 minutes of incubation, plates were washed and bound antibodies were detected by addition of TMB 1 Component HRP Microwell substrate (BioFx #TMBW-1000-01). The reaction was terminated by addition of 100 μL/well of 650 nM Stop Reagent for TMB Microwell substrate and the absorbance was measured at 650 nm using a VERSAmax microplate reader (Molecular Devices, Sunnyvale, Calif.). Data were fitted using nonlinear regression with the software […]

[7] = target: T1, human VEGF-A residues 27-191 of …; assay: BIAcore SPR; * detection limit
Description: as §2

[8] = target: T2, unlabeled human VEGF (ELISA coat); assay: ELISA 1 hr, EC50 WT/EC50 mutant
Description: as §3

[9] = target: T1, human VEGF-A residues 27-191 of …; assay: BIAcore SPR, KD WT/KD mutant
Description: as §1

[10] = target: T3, VEGF (R&D systems, Minneapolis, Minn.) (UniProt P15692-4 27-191, limits assumed); assay: BIAcore SPR
How it was run: (§4)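 Antibody captured at low density to limit VEGF avidity; VEGF injected at 0–512 nM in four-fold steps, 50 μL/min for 2 min, then 25 min dissociation in HBS-P pH 7.4. Double-referenced data fit to 1:1 Langmuir model; at least three determinations.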

[11] = target: T3, VEGF (R&D systems, Minneapolis, Minn.); assay: BIAcore SPR, WT/mutant
How it was run: as §4

[12] = target: T3, VEGF (R&D systems, Minneapolis, Minn.); assay: SPR (BIAcore 2000/3000), antibody captured by anti-human Fc, VEGF as analyte, 1:1 Langmuir fit; variant corresponding to SEQ ID NO:82, the best of the variants
Description: RL was kept low to minimize avidity due to the dimeric nature of VEGF. No capture of the antibody was made on the reference surface to serve as a negative control. Subsequently, VEGF was injected to all flow cells at a flow rate of 50 μL/min for two minutes to monitor association followed by a 25-minute flow of HBS-P running buffer (10 mM HEPES, 150 mM sodium chloride, 0.005% P-20, pH 7.4) to monitor the dissociation phase. At each cycle, VEGF, in 6 different concentrations of VEGF ranging between 0 nM and 512 nM and at four-fold increments, was injected over the surface. […] Binding data were fit to the 1:1 Langmuir model to extract binding constants from the BIAevaluate software. Double referencing was applied in each analysis to eliminate background responses from the reference surface and buffer only control. All the binding kinetics data were analyzed at least three separate determinations.

[13] = target: T3, VEGF (R&D systems, Minneapolis, Minn.); assay: BIAcore SPR, mutant/WT
How it was run: as §4

[14] = target: T3, VEGF (R&D systems, Minneapolis, Minn.); assay: BIAcore SPR, improvement over WT
How it was run: as §4

T3 sequence (P15692 other isoform, or with tags, fused parts or gaps limits assumed): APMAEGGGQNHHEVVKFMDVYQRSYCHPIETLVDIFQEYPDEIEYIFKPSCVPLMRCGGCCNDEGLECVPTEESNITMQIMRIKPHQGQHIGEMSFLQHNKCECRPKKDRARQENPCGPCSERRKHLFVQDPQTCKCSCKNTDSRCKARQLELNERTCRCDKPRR
T1 sequence (P15692 other isoform, or with tags, fused parts or gaps limits assumed): as above
Sequence of Alexa647-conjugated rHuVEGF (Invitrogen Cat #PHG0143) (P15692 other isoform, or with tags, fused parts or gaps limits assumed): as above
T2 sequence (P15692 other isoform, or with tags, fused parts or gaps limits assumed): as above

B1: T30 W (SS DLL4-VEGF DVD-Ig) (bispecific antibody)
VH: EVQLVESGGGLVQPGGSLRLSCAASGFTFSNFPMAWVRQAPGKGLEWVATISSSDGTTYYRDSVKGRFTISRDNAKNSLYLQMNSLRAEDTAVYYCARGYYNSPFAYWGQGTLVTVSSASTKGPEVQLVESGGGLVQPGGSLRLSCAASGYTFWNYGMNWVRQAPGKGLEWVGWINTYTGEPTYAADFKRRFTFSLDTSKSTAYLQMNSLRAEDTAVYYCAKYPHYYGSSHWYFDVWGQGTLVTVSS
VL: DIQMTQSPSSLSASVGDRVTITCRASEDIYSNLAWYQQKPGKAPKLLIYDTNNLADGVPSRFSGSGSGTDFTLTISSLQPEDFATYYCQQYNNYPPTFGQGTKLEIKRTVAAPDIQMTQSPSSLSASVGDRVTITCSASQDISNYLNWYQQKPGKAPKVLIYFTSSLHSGVPSRFSGSGSGTDFTLTISSLQPEDFATYYCQQYSTVPWTFGQGTKVEIK
notes: also called SS DLL4-VEGF DVD-Ig variant T30W
affinity improvement [1]: 0.8 fold
Kd [2]: 16 nM
koff [2]: 0.000143 s⁻¹
kon [2]: 9120 M⁻¹ s⁻¹

B2: VL T51A (antibody, V domains shown)
VH: EVQLVESGGGLVQPGGSLRLSCAASGYTFTNYGMNWVRQAPGKGLEWVGWINTYTGEPTYAADFKRRFTFSLDTSKSTAYLQMNSLRAEDTAVYYCAKYPHYYGSSHWYFDVWGQGTLVTVSS
VL: DIQMTQSPSSLSASVGDRVTITCSASQDISNYLNWYQQKPGKAPKVLIYFASSLHSGVPSRFSGSGSGTDFTLTISSLQPEDFATYYCQQYSTVPWTFGQGTKVEIKR
MFI [3]: 296

B3: VH K64Q (antibody, V domains shown)
VH: EVQLVESGGGLVQPGGSLRLSCAASGYTFTNYGMNWVRQAPGKGLEWVGWINTYTGEPTYAADFQRRFTFSLDTSKSTAYLQMNSLRAEDTAVYYCAKYPHYYGSSHWYFDVWGQGTLVTVSS
VL: DIQMTQSPSSLSASVGDRVTITCSASQDISNYLNWYQQKPGKAPKVLIYFTSSLHSGVPSRFSGSGSGTDFTLTISSLQPEDFATYYCQQYSTVPWTFGQGTKVEIK
notes: copies: 2 + 2
MFI [3]: 230

B4: H97 F (anti-VEGF IgG) (antibody, V domains shown)
VH: EVQLVESGGGLVQPGGSLRLSCAASGYTFTNYGMNWVRQAPGKGLEWVGWINTYTGEPTYAADFKRRFTFSLDTSKSTAYLQMNSLRAEDTAVYYCAKYPFYYGSSHWYFDVWGQGTLVTVSS
VL: DIQMTQSPSSLSASVGDRVTITCSASQDISNYLNWYQQKPGKAPKVLIYFTSSLHSGVPSRFSGSGSGTDFTLTISSLQPEDFATYYCQQYSTVPWTFGQGTKVEIK
notes: copies: 2 + 2
kon [4]: 59000 M⁻¹ s⁻¹
Kd [5]: ≤ 0.17 nM
ELISA o/n binding [6]: 2.3 fold
koff [7]: ≤ 1e-05 s⁻¹
ELISA 1hr binding [8]: 2 fold
affinity improvement [9]: 2.5 fold

B5: VH K64S (antibody, V domains shown)
VH: EVQLVESGGGLVQPGGSLRLSCAASGYTFTNYGMNWVRQAPGKGLEWVGWINTYTGEPTYAADFSRRFTFSLDTSKSTAYLQMNSLRAEDTAVYYCAKYPHYYGSSHWYFDVWGQGTLVTVSS
VL: DIQMTQSPSSLSASVGDRVTITCSASQDISNYLNWYQQKPGKAPKVLIYFTSSLHSGVPSRFSGSGSGTDFTLTISSLQPEDFATYYCQQYSTVPWTFGQGTKVEIK
notes: copies: 2 + 2
MFI [3]: 168

B6: bevacizumab variant corresponding to SEQ ID NO:82 (antibody, V domains shown)
VH: EVQLVESGGGLVQPGGSLRLSCAASGYTFTFYGMNWVRQAPGKGLEWVGWINTYTGEPTYAADFKRRFTFSLDTSKSTAYLQMNSLRAEDTAVYYCAKYPDYDGGSHWYFDVWGQGTLVTVSS
VL: DIQMTQSPSSLSASVGDRVTITCSASQDISNYLNWYQQKPGKAPKVLIYFTSSLHSGVPSRFSGSGSGTDFTLTISSLQPEDFATYYCQQYSTVPWTFGQGTKVEIKR
Kd [10]: 0.0827 nM
koff [10]: 0.000172 s⁻¹
kon [10]: 2.08e+06 M⁻¹ s⁻¹
Δkoff [11]: 2 fold
Kd [12]: 0.08 nM
Δkon [13]: 11.6 fold
ΔKD [14]: 23.8 fold

B7: VH Y53F.K64Q (antibody, V domains shown)
VH: EVQLVESGGGLVQPGGSLRLSCAASGYTFTNYGMNWVRQAPGKGLEWVGWINTFTGEPTYAADFQRRFTFSLDTSKSTAYLQMNSLRAEDTAVYYCAKYPHYYGSSHWYFDVWGQGTLVTVSS
VL: DIQMTQSPSSLSASVGDRVTITCSASQDISNYLNWYQQKPGKAPKVLIYFTSSLHSGVPSRFSGSGSGTDFTLTISSLQPEDFATYYCQQYSTVPWTFGQGTKVEIK
notes: copies: 2 + 2
MFI [3]: 217

B8: VH H97E.Y98F (antibody, V domains shown)
VH: EVQLVESGGGLVQPGGSLRLSCAASGYTFTNYGMNWVRQAPGKGLEWVGWINTYTGEPTYAADFKRRFTFSLDTSKSTAYLQMNSLRAEDTAVYYCAKYPEFYGSSHWYFDVWGQGTLVTVSS
VL: DIQMTQSPSSLSASVGDRVTITCSASQDISNYLNWYQQKPGKAPKVLIYFTSSLHSGVPSRFSGSGSGTDFTLTISSLQPEDFATYYCQQYSTVPWTFGQGTKVEIK
notes: copies: 2 + 2
MFI [3]: 310
